Reference: patent publication US12006343B2, “C4BP-based compounds for treating immunological diseases” (FUNDACIO INSTITUT D'INVESTIGACIO BIOMEDICA DE BELLVITGE …, priority 2017, dated 2024)
“Also recorded” adds a separate entry of the source.

B1: C4BP(β−): plasma-purified C4BP minor isoform lacking beta chain; C4BPd3 is the CAIA group given 50 μg sc at days 3 and 5 (protein, UniProt P04003 49-597, looked up)
C4b-binding protein alpha …: NCGPPPTLSFAAPMDITLTETRFKTGTTLKYTCLPGYVRSHSTQTLTCNSDGEWVYNTFCIYKRCRHPGELRNGQVEIKTDLSFGSQIEFSCSEGFFLIGSTTSRCEVQDRGVGWSHPLPQCEIVKCKPPPDIRNGRHSGEENFYAYGFSVTYSCDPRFSLLGHASISCTVENETIGVWRPSPPTCEKITCRKPDVSHGEMVSGFGPIYNYKDTIVFKCQKGFVLRGSSVIHCDADSKWNPSPPACEPNSCINLPDIPHASWETYPRPTKEDVYVVGTVLRYRCHPGYKPTTDEPTTVICQKNLRWTPYQGCEALCCPEPKLNNGEITQHRKSRPANHCVYFYGDEISFSCHETSRFSAICQGDGTWSPRTPSCGDICNFPPKIAHGHYKQSSSYSFFKEEIIYECDKGYILVGQAKLSCSYSHWSAPAPQCKALCRKPELVNGRLSVDKDQYVEPENVTIQCDSGYGVVGPQSITCSGNRTWYPEVPKCEWETPEGCEQVLTGKRLMQCLPNPEDVKMALEVYKLSLEIEQLELQRDSARQSTLDKEL
modifications: alpha-chain-only isoform, plasma-purified

Columns and labels:
NZBWF1 mice [1] = settings: CYP 50 mg/kg IP every 10 days; Alperovich et al. 2007; cited from earlier work
lupus-prone NZBWF1 mice [2] = assay: Renal function (24 h proteinuria) in spontaneous SLE mouse model NZBWF1; format: in vivo; settings: CYP 50 mg/kg IP every 10 days, up to week 37
Protocol: Mice, Study Design and Follow Up
NZB/NZW F1 or NZBWF1/J (Charles-River), NZB/NZW F1 (Jackson, code 100008) are a hybrid cross between NZB/B1NJ (Jackson, code 000684) Female x NZW/LacJ (Jackson, code 001058) Male. NZBWF1/J mice develop an autoimmune disease resembling human systemic lupus erythematosus. The inventors used 58 females (30-35 g/each) aged 15 weeks for the study (4-5 animals per cage). The animals were maintained under standard laboratory conditions, at 20-24° C. and 40-70% relative humidity, with 12-hour fluorescent light/12-hour dark cycle. They were feed standard diet and tap water ad libitum. […]
Dose Selection and Administration.
The selection of the C4BP(β−) dose for in vivo administration was based in previous studies employing complement-related proteins in immune-inflammatory pathologies. Blom et al. (Blom et al. 2009. Ann. Rheum. Dis., 68:136-42) used the C4BP isoform lacking β chain in experimental collagen-induced arthritis (CIA) and collagen antibody-induced arthritis (CAIA) mice to investigate the influence of complement activity in the treatment of rheumatoid arthritis. These authors administered intraperitoneally C4BP (2 mg/mouse) using a multiple dose-regimen once every two days in preventive and therapeutic experiments. Thus, in the current study, C4BP(β−) was administered both intraperitoneally (IP) and subcutaneously (SC) into NZBWF1 mice for three months (between six and nine months of age).
Alperovich et al (Alperovich et al. 2007. Lupus, 16:18-24) administered cyclophosphamide (CYP) to NZBWF1 mice at 50 mg/kg IP every 10 days.
(§1) Both IP and SC administrations for C4BP(β−), CYP and PBS (150 μl/each) were performed with a 25-gauge needle during 30 s, after rinsing the skin with 70% ethanol.
(§2) The detailed administration schedule was as follows (Table 5):
Body weight was determined twice monthly from the beginning to the end of follow-up. Mice were placed in metabolic cages to collect 24 h urine specimens before the onset of treatment and monthly thereafter. Blood was obtained from the tail vein at monthly intervals.
Renal Function Analysis: Proteinuria
24 h urinary protein was determined by pyrogallol red (Olympum Autoanalyzer AU400, Hamburg, Germany) in the Veterinary Clinical Biochemistry Laboratory from Universitat Autonoma de Barcelona.
(§3) One-way analysis of variance (ANOVA) with post hoc tests was performed to compare proteinuria throughout the follow up. Survival data were analyzed using Kaplan-Meier curves and long-rank test. P value<0.05 was considered significant. Data are expressed as mean±SEM.

lupus-prone NZBWF1 mice [3] = assay: Kaplan-Meier survival in spontaneous SLE mouse model NZBWF1; format: in vivo; settings: CYP 50 mg/kg IP once every 10 days
Protocol: NZBWF1/J mice develop an autoimmune disease resembling human systemic lupus erythematosus. […] The animals were maintained under standard laboratory conditions, at 20-24° C. and 40-70% relative humidity, with 12-hour fluorescent light/12-hour dark cycle. They were feed standard diet and tap water ad libitum.
as §1, §2, §3

NZBWF1 mice [4] = format: in vivo, mouse; settings: treatment weeks 24-36
Protocol: The animals were observed daily throughout the experimental period to check out any local and systemic reaction to the treatment, as well as other signs of illness and/or behavioral changes in order to obtain tolerance and toxicological information. Body weight was determined twice monthly from the beginning to the end of follow-up. Mice were placed in metabolic cages to collect 24 h urine specimens before the onset of treatment and monthly thereafter. Blood was obtained from the tail vein at monthly intervals.

[5] = tested on: human monocyte-derived DCs; assay: Immunomodulatory activity over human monocyte-derived DCs: CD83/CD86 surface expression by flow cytometry after LPS maturation; format: cell-based; settings: FIG. 4
Protocol: In Vitro Functional Assessment of the Immunomodulatory Activity of Full-Length C4BP(β−) and C4BP(β−) Variants Over DCs
The inventors used for the in vitro study both C4BP(β+) (WT) and recombinant C4BP(β−) isoforms, and the above-referred mutants or variants: Mutant 1 and Mutant 2. C4BP(β+) isoforms refer to the major C4BP α7β1 plus the minor C4BP α6β1 isoforms (both in complex with ProS) purified from pooled human plasma.
RPMI 1640 was supplemented with 100 μg/ml of streptomycin, 100 IU/ml of penicillin, 2 mM L-glutamine (all from Invitrogen, Carlsbad, CA) and 10% heat-inactivated fetal bovine serum (Linus, Cultek, Spain) (complete medium), unless otherwise stated.
Peripheral blood mononuclear cells (PBMCs) were obtained from buffy coat preparations collected from healthy donors from the Blood and Tissue Bank (Barcelona, Spain) after Ficoll-Paque™ density centrifugation (GE Healthcare Bio-Sciences AB; Uppsala, Sweden). For surface phenotype determination, monocytes were plated at 1×10^6 cells/ml in 60 mm culture plates (Corning, Spain), in RPMI 1640 medium without serum, and allowed to adhere for 2 h at 37° C. in 5% CO2. The non-adherent cells were removed by washing in PBS.
Monocyte-derived DCs were generated supplementing the monocyte cultures with complete RPMI 1640 medium plus GM-CSF (800 UI/ml) and IL-4 (500 UI/ml) (both from Gentaur, Kampenhout, Belgium) at day 0 and day 3 of culture. For DC maturation, at day 5 iDCs were further stimulated for 48 h with 5 μg/ml LPS (Escherichia coli 055.B5, Sigma L2880, Copenhagen, Denmark).
Staining using the fluorescent dye 7-amino-actinomycin D (7-AAD) (BD Pharmigen) and flow cytometry analysis was employed to assess the viability status of C4BP-treated and untreated DCs.
Cell surface phenotypes were analyzed by flow cytometry using the following mAbs: FITC-conjugated anti-CD83 (HB15a) and PE-conjugated anti-CD86 (HA5.2B7) (all from Beckman-Coulter). The respective isotype controls FITC-conjugated anti-IgG2b (H2) and PE-conjugated anti-IgG2b (H2), were from the same commercial sources. After washing with PBS, cells were subsequently stained with 3 μl mAb/10^5 cells in 100 μl of FACS buffer (PBS containing 1% BSA and 0.1% sodium azide) for 20 min at room temperature. To exclude dead cells and debris, DCs were gated according to forward scatter (FSC) and side scatter (SSC) parameters. Stained cells were analyzed using a FACSCalibur (Becton Dickinson, Franklin Lakes, NJ) equipped with CellQuestPro software (Becton Dickinson).
In Vitro Functional Assessment of C4BP(β−) Immunomodulatory Activity Over DCs
The inventors used for the in vitro study both C4BP(+) and C4BP(β−) isoforms. C4BP(3+) isoforms refer to the major C4BP α7β1 plus the minor C4BP α6β1 isoforms (both in complex with ProS) purified from pooled human plasma, as previously described (Dahlbäck B. 1983. Biochem J., 209:847-56).

[6] = tested on: Balb/c male mice, CAIA model; format: in vivo, mouse
Description: Collagen-antibody induced arthritis (CAIA) is a simple mouse model of human rheumatoid arthritis (RA) induced by the systemic administration of a cocktail of monoclonal antibodies directed against conserved auto-antigenic collagen type II epitopes, followed by a single injection of lipopolysaccharide (LPS). CAIA is a useful model to study the effector inflammatory phase of arthritis without involving the priming phase of the immune response. The murine CAIA model shares several clinical, immunological and pathological features with RA. Therefore, this model is useful to study the pathogenic mechanisms involved in RA disease as well as for testing new therapies.
Balb/c male mice aged 7-8 weeks were supplied by Envigo. The animals were acclimated during 12 days. The animals were maintained in an environmentally controlled room with ventilation, temperature (22±2° C.), relative humidity (35-65%), and cycle light/dark (12 h/12 h). The animals were housed in groups of 3-5 animals/cage. The maintenance diet was supplied by Harlan Interfauna Ibérica, S. L. (“2014 Harlan Teklad Global Diets”) and they were feed diet and water ad libitum.
Plasmatic C4BP(β−) was supplied at a concentration of 6.2 mg/ml. C4BP(β−) solutions were prepared to the desired concentration 0.33 mg/ml (for 50 μg doses) by dilution with Dulbecco's phosphate-buffered saline (DPBS) of C4BP(β−) 6.2 mg/ml stock solution.
Two reference compounds were used: dexamethasone (Sigma, Ref. D1756) and Enbrel® (etanercept) (Pfizer, Ref. 655950).
Reference compound dexamethasone was dissolved in vehicle (0.1% Tween-80+99% carboxymethyl cellulose (CMC) (0.5% w/v) in water at a concentration of 0.1 mg/ml.
Enbrel® was prepared at 6 mg/ml in DPBS by dilution of 50 mg/mL stock solution.
Experimental Procedure Day 0: Arthritis Induction
On day 0, animals for experimental group C4BPd3 were randomly selected (n=8) and identified using tail code numbers and weighted.
Each mouse was sensitized by the administration of 2 mg anti-type II collagen antibodies cocktail (ArthritoMAB™ cocktail solution, 0.2 mL, i.v., day 0) in the caudal vein.
Day 3: LPS Synchronization
Animals were intraperitoneally administered with 0.1 mL of LPS solution (0.7 mg/ml, 70 μg/animal).
50 μg of C4BP(β−) were administered subcutaneously at day 3 to treatment group C4BPd3.
50 μg of C4BP(β−) were administered subcutaneously at day 5 to treatment group C4BPd3.
Day 5: Animal Distribution
On day 5 after sensitization, the rest of the animals developing clinical signs of arthritis (n=18) were evaluated and distributed in base of CAIA+incidence. Animals were homogeneously randomized (arthritis score) into the CAIA control group, dexamethasone (1 mg/kg at days 5-11, p.o.) and Enbrel®-treated groups (30 mg/kg at days 5-11, s.c.) (n=6). Animals were identified using tail code numbers and weighted.
Group 2 was not included in the distribution because of the previous test item administration.
The arthritis score was determined using the criteria of Table 9.
Treatment: • C4BPd3 group: 50 μg of C4BP(β−) were subcutaneously injected to animals on days 3 and 5. Volume: 0.150 mL. • Reference compound treatments and CAIA control groups (days 5-11): • Enbrel®: 30 mg/kg of Enbrel® was subcutaneously administered to Enbrel group from days 5 to 11. Volume: 5 mL/kg. • Dexamethasone: 1 mg/kg dexamethasone was orally administered to dexamethasone group from days 5 to 11. Volume: 10 mL/kg. • CAIA control group: 0.150 mL of DPBS was subcutaneously administered from days 5 to 11. Arthritis Monitoring:
Body weights were registered daily from days 0-12 in C4BPd3 and from days 5-12 in CAIA control, dexamethasone and Enbrel® groups. Arthritis scores were determined by the same observer in order to avoid observer bias.
The study was finished at day 12.
Animals were anesthetized with isoflurane. Ankles and wrists thickness were measured using a dial thickness gauge. Serum samples were collected and stored at −20° C. […]

Molecule	histological lesions (NZBWF1 mice [1])	serum anti-DNA antibodies (NZBWF1 mice [1])	development of proteinuria (lupus-prone NZBWF1 mice [2])	survival (lupus-prone NZBWF1 mice [3])	toxicity and behavioral changes (NZBWF1 mice [4])	semi-mature, anti-inflammatory phenotype conferred to LPS-matured MoDCs (immunomodulatory activity) ([5]; MoDCs pre-incubated with 5 μg/ml protein, LPS challenge)	CD83 and CD86 surface marker expression ([5]; human MoDCs, 5 μg/ml C4BP isoform, LPS 5 μg/ml)	protection lasting until day after the arthritis induction ([6]; 50 μg sc at days 3 and 5) [days]	inhibition of arthritis score vs. CAIA controls AUC ([6]; C4BP(β−) 50 μg sc days 3 and 5, dexamethasone 1 mg/kg po days 5-11) [%]	ankle thickness ([6]; day 12, C4BP(β−) 50 μg sc d3 and d5, dexamethasone 1 mg/kg po d5-11, Enbrel 30 mg/kg sc d5-11) [mm]	wrist thickness vs. CAIA control ([6]; day 12, regimens as Table 8)	body weight vs CAIA control group ([6]; mouse, in vivo)	arthritis scores / progression of arthritis ([6]; regimens as Table 8, vs CAIA control group)
O=P1(N(CCCl)CCCl)NCCCO1 (centres unmarked) [CYP, Cyclophosphamide, reference compound]	arrested and reversed almost all histological lesions	appropriately controlled	prevented the development of proteinuria	survived throughout the period of observation; also recorded: increased survival	neither toxicity nor behavioral changes were observed								
B1					neither toxicity nor behavioral changes were observed	able to confer an analogous semi-mature, anti-inflammatory phenotype	restrain similarly CD83 and CD86 surface marker expression	≥ 12	47	2.74±0.08	No changes	No remarkable differences	significantly ameliorated the progression of arthritis
